This note sets out measurements from the Immune Epitope Database (IEDB).

Targets include HLA-A*02:02; HLA-A*02:01; HLA-A*02:06; HLA-A*02:03; HLA-A*68:02.
Common to all, as to test: IEDB peptide-MHC binding, purified MHC/competitive/radioactivity; ≥ and ≤ were set here for values at or beyond the usual limits of such assays
The mark [1] stands for this setting: source organism: Vaccinia virus WR.
[2] abbreviates: source organism: Influenza A virus.
Setting [3] is: source organism: Mammarenavirus juninense.
The mark [4] stands for this setting: source organism: Hepacivirus hominis.
Setting [5] is: source organism: Mammarenavirus choriomeningitidis.

As for AVANCVRNL, the IC50 with HLA-A*02:02 (setting [1]) stood at 66 nM; with HLA-A*02:01 (setting [1]) it was 1200 nM; with HLA-A*02:06 (setting [1]) it was 1380 nM; with HLA-A*02:03 (setting [1]) it was 114 nM; in the test with HLA-A*68:02 (setting [1]) it was 1350 nM.
Consider RTFFLTQGA, for which the IC50 was found to be 2010 nM with HLA-A*02:02 (setting [2]); 3110 nM with HLA-A*02:01 (setting [2]); 1990 nM with HLA-A*02:06 (setting [2]); 158 nM with HLA-A*02:03 (setting [2]); 514 nM in the test with HLA-A*68:02 (setting [2]).
As to KSGLFQFFV, the IC50 with HLA-A*02:02 (setting [3]) is 23 nM; with HLA-A*02:01 (setting [3]) it was 17 nM; in the test with HLA-A*02:06 (setting [3]), 8.1 nM; with HLA-A*02:03 (setting [3]), 1560 nM; with HLA-A*68:02 (setting [3]), 201 nM.
In the case of RIITILQDIV, the IC50 was found to be 595 nM with HLA-A*02:02 (setting [1]); 526 nM with HLA-A*02:01 (setting [1]); 95 nM in the test with HLA-A*02:06 (setting [1]); 209 nM with HLA-A*02:03 (setting [1]); 290 nM with HLA-A*68:02 (setting [1]).
For the sequence FLAFLLFLVL, the IC50 with HLA-A*02:02 (source organism: SARS-CoV1) stood at 13 nM; in the test with HLA-A*02:01 (source organism: SARS-CoV1), 11 nM; in the test with HLA-A*02:06 (source organism: SARS-CoV1), 2000 nM; with HLA-A*02:03 (source organism: SARS-CoV1), 245 nM; with HLA-A*68:02 (source organism: SARS-CoV1), 3810 nM.
For TLDAANHSI the same measures were 92 nM, 9.6 nM, 29 nM, 283 nM and 1020 nM.
Turning to ILMTHFFSIL, the IC50 with HLA-A*02:02 (setting [4]) was 35 nM; in the test with HLA-A*02:01 (setting [4]) it was 44 nM; with HLA-A*02:06 (setting [4]), 101 nM; in the test with HLA-A*02:03 (setting [4]), 69 nM; with HLA-A*68:02 (setting [4]) it was 3970 nM.
Take RIASILSLET: the IC50 with HLA-A*02:02 (setting [1]) worked out at 583 nM; in the test with HLA-A*02:01 (setting [1]), 985 nM; with HLA-A*02:06 (setting [1]), 751 nM; with HLA-A*02:03 (setting [1]), 449 nM; with HLA-A*68:02 (setting [1]), 442 nM.
Regarding KVYLSTFNM, the IC50 with HLA-A*02:02 (setting [1]) was 482 nM; with HLA-A*02:01 (setting [1]), 535 nM; with HLA-A*02:06 (setting [1]), 265 nM; with HLA-A*02:03 (setting [1]), 786 nM; with HLA-A*68:02 (setting [1]), 1820 nM.
On to NSLILLECFV, for which the IC50 with HLA-A*02:02 (setting [5]) was found to be 1.2 nM; in the test with HLA-A*02:01 (setting [5]), 7.4 nM; with HLA-A*02:06 (setting [5]), 4.2 nM; in the test with HLA-A*02:03 (setting [5]), 47 nM; in the test with HLA-A*68:02 (setting [5]) it was 43 nM.
As for SLCSCICTV, the IC50 with HLA-A*02:02 (source organism: SARS-CoV1) stood at 4 nM; with HLA-A*02:01 (source organism: SARS-CoV1), 3.2 nM; with HLA-A*02:06 (source organism: SARS-CoV1) it was 5.8 nM; with HLA-A*02:03 (source organism: SARS-CoV1) it was 4.2 nM; with HLA-A*68:02 (source organism: SARS-CoV1), 1670 nM.
With RAFIYSIMET, the IC50 with HLA-A*02:02 (setting [1]) turned out to be 81 nM; with HLA-A*02:01 (setting [1]) it was 659 nM; in the test with HLA-A*02:06 (setting [1]), 578 nM; in the test with HLA-A*02:03 (setting [1]), 70 nM; in the test with HLA-A*68:02 (setting [1]) it was 852 nM.
For YIFFASFYYI, the IC50 in the test with HLA-A*02:02 (source organism: SARS-CoV1) is 0.46 nM; in the test with HLA-A*02:01 (source organism: SARS-CoV1) it was 15 nM; with HLA-A*02:06 (source organism: SARS-CoV1) it was 0.8 nM; with HLA-A*02:03 (source organism: SARS-CoV1), 60 nM; in the test with HLA-A*68:02 (source organism: SARS-CoV1) it was 2.2 nM.
With PISDYSAEV, the IC50 with HLA-A*02:02 (setting [1]) is 716 nM; with HLA-A*02:01 (setting [1]) it was 1050 nM; in the test with HLA-A*02:06 (setting [1]), 2800 nM; with HLA-A*02:03 (setting [1]), 267 nM; with HLA-A*68:02 (setting [1]), 1390 nM.
With IVDSMIIGHI, the IC50 with HLA-A*02:02 (setting [1]) amounted to 507 nM; in the test with HLA-A*02:01 (setting [1]), 1060 nM; in the test with HLA-A*02:06 (setting [1]), 561 nM; with HLA-A*02:03 (setting [1]), 208 nM; with HLA-A*68:02 (setting [1]) it was 53 nM.
On to PASISSVLT, for which the IC50 was found to be 1380 nM with HLA-A*02:02 (setting [1]); 1200 nM with HLA-A*02:01 (setting [1]); 1490 nM in the test with HLA-A*02:06 (setting [1]); 1360 nM in the test with HLA-A*02:03 (setting [1]); 1490 nM with HLA-A*68:02 (setting [1]).
On to FVNFVKDMI, for which the IC50 with HLA-A*02:02 (setting [1]) is 55 nM; with HLA-A*02:01 (setting [1]) it was 1790 nM; with HLA-A*02:06 (setting [1]), 229 nM; in the test with HLA-A*02:03 (setting [1]) it was 124 nM; with HLA-A*68:02 (setting [1]), 0.62 nM.
For IASSMKGENV the same measures were 751 nM, 727 nM, 311 nM, 3240 nM and 867 nM.
For EMVEYLENQL the same measures were 212 nM, 485 nM, 420 nM, 209 nM and 1650 nM.
For the sequence QMLSVVGFLV, the IC50 was 1.2 nM with HLA-A*02:02 (source organism: SARS-CoV1); 7.5 nM with HLA-A*02:01 (source organism: SARS-CoV1); 14 nM with HLA-A*02:06 (source organism: SARS-CoV1); 6 nM with HLA-A*02:03 (source organism: SARS-CoV1); 206 nM with HLA-A*68:02 (source organism: SARS-CoV1).
For SMMSFSAAL, the IC50 with HLA-A*02:02 (setting [4]) was 5.1 nM; with HLA-A*02:01 (setting [4]), 13 nM; with HLA-A*02:06 (setting [4]), 106 nM; with HLA-A*02:03 (setting [4]), 15 nM; in the test with HLA-A*68:02 (setting [4]), 493 nM.
As to GTIILNKIV, the IC50 with HLA-A*02:02 (setting [1]) was 1190 nM; with HLA-A*02:01 (setting [1]) it was 3890 nM; with HLA-A*02:06 (setting [1]) it was 1430 nM; in the test with HLA-A*02:03 (setting [1]), 3400 nM; with HLA-A*68:02 (setting [1]), 926 nM.
For NVFISPASI the same measures were 202 nM, 136 nM, 660 nM, 0.73 nM and 1.9 nM.
Turning to ATFRDMLLNV, the IC50 is 7.1 nM with HLA-A*02:02 (setting [1]); 8.3 nM with HLA-A*02:01 (setting [1]); 3 nM with HLA-A*02:06 (setting [1]); 0.4 nM in the test with HLA-A*02:03 (setting [1]); 511 nM with HLA-A*68:02 (setting [1]).
